Values quoted from earlier work, collected in PMC6295471.

Assays:
Mxd1 5-24 (Homo sapiens) = Mxd1 5-24 (Homo sapiens) (UniProt Q05195)
Mxd1 5-20 (Homo sapiens) = Mxd1 5-20 (Homo sapiens) (UniProt Q05195)
Sap30 SID (Mus musculus) = Sap30 SID (Mus musculus) (UniProt O88574)
Sequence of UniProt O88574 (O88574 130-220): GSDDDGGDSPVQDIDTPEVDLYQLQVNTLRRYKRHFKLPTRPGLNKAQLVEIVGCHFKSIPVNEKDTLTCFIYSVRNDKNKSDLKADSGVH

Sequence of UniProt Q05195 (Q05195 5-24): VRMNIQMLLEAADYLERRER

Substance | Kd (Mxd1 5-24 (Homo sapiens)) [nM] | Kd (Mxd1 5-20 (Homo sapiens)) [nM] | Kd (Sap30 SID (Mus musculus)) [nM]
Sin3 PAH2 (from UniProt Q62141) | 400 | 1400 | 
Sin3 PAH3 (from UniProt Q60520) |  |  | 10
